{"source": "patent US20240026407A1", "about": "“MODIFICATION OF SAPONINS” (GLAXOSMITHKLINE BIOLOGICALS SA, priority 2020, published 2024)", "molecules": {"B1": {"name": "Variant R3: engineered rhamnosidase polypeptide, variant of Kribbella flavida rhamnosidase SEQ ID No. 1017 (protein)", "chain": "MSFPAAPARLRFEHRTDPGPVLGIGTATPRLSWQVPTAPDDYRQAGYEVEIARGDAAPEQYTVDSADQVLVPWPGTPLAARESATVRVRVRGDGDWSQWSDPATVEAGLLSADDWTARFVSPRENAGHEAPAPLIGGVIDLPPDIAQARLYATAHGIYEPTLNGTRVGDEQLAPGWTAYEQRLRYQTYDVTDLVAPGENRLELLVGNGWYRGRMGFHGGHSLYGDRLAVLAQLEVTTATGEVKVLASDGTWTTRETNVLADDLYDGQHVDLRRTLGEPGPVDVLDADLSLLVAPDGPPVRVTDVLPAKAVTTSPAGKTLVDFGQNVVGRLRLRVRGGAAGDEIVLRHAEVLEDGELCVRPLRTAKATDSFVLAGPDEVTLEPTLTFHGFRYAEITGVPDLRAEDVEAVVVGSDLRRTGWFESSHPLLDRFHENVVWGMRGNFLDVPTDCPQRDERLGWTGDIQVFSPTASFLFDTAGFLTNWLADLIAEQHKDGSVPFVVPDVLRQPGPATAAWGDAATIVPWVLYERTGDAGLLARQLPSMRAWVDRMAGLAGDDLLWVGGFQFGDWLDPTAPPDDPFRAKADPDVLATAHLARSAEVVALAAEVVGAGELAREYAELAARVRQAFAAEYTTGSGRVLSDAATNYALALQWALLPTEAQRKRAGERLADLVRTAGFRISTGFVGTPLMADALADSGHPDLAYRLLLETGCPSWLYAVTMDATTVWERWDSMLPDGSINPGQMTSFNHYALGAVADWMHRRVAGLAPGDPGYRRIVVDPLFTAHLTKASARHLTPYGEAAVAWSRSGGRVRLEVTVPVGARARVAVPGESAPVEVGHGTHEWTADDVYGETPPLPADATIRQLIDHEPSWTTLAAAATRTGIVADDAELAGRLERYLDHPATELVDAVSPRGFSPSAEALHAELDSVLGR", "modifications": "Seq ID No. 1017 with mutations A143P, L214M, K219G, Q921H, G357C"}}, "key": {"[1]": {"experiment": "Example 10: derhamnosylation of saponins in crude bark extract (50%) using WT and engineered rhamnosidases R1 to R5", "assay_type": "biochemical, Quillaja saponaria", "details": "7 h, 50% CBE, 35 degC; for % Right Peak: starting CBE 26; for % Left Peak: starting CBE 30; for % Middle Peak: starting CBE 44", "method": "Lyophilised powders from clarified cell lysate expressing glucosidases (from Example 8 WT glucosidase and engineered glucosidase polypeptides G1 to G5) and rhamnosidases (from Example 9 WT rhamnosidase and engineered rhamnosidase polypeptides R1 to R5) were dissolved in 200 mM sodium acetate aqueous solution at pH 5.8 to prepare the enzyme solutions at 4 fold the final reaction concentration as shown in Tables 19 and 20.\nEach rhamnosidase solution was combined with an equal volume of 200 mM sodium acetate aqueous solution at pH 5.8 and separately with an equal volume of 200 mM sodium acetate aqueous solution at pH 5.8 containing 2 mg/ml glucosidase G5. This is a sufficient loading of glucosidase to effect complete hydrolysis of the relevant glucose moiety within 4 hours.\nCBE was adjusted to pH of 6.0 to 6.2 with 2M sodium hydroxide and an equal volume added to the enzyme solution to prepare the reaction mix (i.e. 50% CBE concentration in reaction mix) and the concentration of glucosidase and/or rhamnosidase is shown in Tables 19 and 20. The reaction mix was heated to 35 degC for the time indicated in Tables 19 and 20, after which the reaction was quenched by addition of an equal volume of MeCN containing 2% acetic acid and shaken at room temperature for 10 mins prior to centrifugation (10 min, 4 degC) to remove particulates. Samples were analysed by UV HPLC using method of Experiment 4-4.\nThe change in composition of the Left, Middle and Right peaks is shown in Tables 19 and 20. The composition changes by the action of the enzymes depending on the presence or absence of the partner enzyme. The extent of reaction is proportional to the enzyme concentration and the reaction time under these conditions. The tables show data for enzyme concentrations and the reaction times providing for equivalent extents of reaction. The improvement resulting from the mutations introduced for each variant is equal to the fold change in enzyme concentration×time (i.e. fold improvement=(enzyme concentration×time) for preceding variant÷(enzyme concentration×time) for later variant). A cumulative fold improvement over the original enzyme variant is calculated by the product of the individual fold improvements."}, "[2]": {"experiment": "Example 9: screening of rhamnosidase variants for derhamnosylation of saponins in crude bark extract", "assay_type": "biochemical, Quillaja saponaria", "details": "18 h, CBE 75% v/v, 100 mM Sodium acetate pH 5.8", "method": "Libraries of genetic variants encoding mutations in the wild type Kribbella flavida rhamnosidase (SEQ ID No. 1017) were prepared using molecular biology techniques, enzymes were prepared linked to a C-terminally located His-tag. Single monoclonal colonies were grown in 400 ul of expression medium and protein expressed. Cell pellets were lysed in 200 ul of the relevant buffer (Table 17).\nLysate was diluted appropriately in the relevant buffer to allow a lysate loading of the indicated % loading (1% loading corresponds to use of 2 ul original lysate in a 200 ul reaction).\nCrude bark extract (CBE) obtained by aqueous extraction of Quillaja saponaria and containing at least 2.80 mg/ml QS-21 (by HPLC-UV) was adjusted to pH 6 by dropwise addition of 2M NaOH with stirring. The relevant concentration of the relevant glucosidase was added. The appropriate relative volume of pH 6 CBE (160 ul (for 80%) or 150 ul (for 75%)) was added to each well of the reaction plate. The reaction plate was sealed and incubated at the relevant temperature and time.\nThe reaction plate was quenched by adding 200 uL of MeCN (2% AcOH, 1 mg/mL hexanophenone) to each well of the plates. The quenched reaction plate was re-sealed and incubated at 20 deg C. with shaking for 10 min. The reaction plate was then centrifuged (10 min, 4 degC).\n200 uL was transferred from each well of the quenched plate to the corresponding wells of a fresh 96 well plate and sealed. The plate was analysed by UV HPLC with the method described in Example 4.\nThree key peaks of interest are apparent using this chromatography: Left Peak (retention time approximately 2.30-2.35 min) comprising mainly QS-17 family components; Middle Peak (retention time approximately 2.37-2.42 min) comprising mainly QS-18 family components and desglucosyl-QS-17 family components; and Right Peak (retention time approximately 2.44-2.50 min) comprising mainly QS-21 family components. Peak identity was supported by MS/MS.\nEnzyme activity is calculated as the % conversion of the Left Peak present in the crude bark extract: […]"}, "[3]": {"details": "rhamnosidase 0.63 mg/ml + glucosidase G5 0.5 mg/ml"}, "[4]": {"details": "rhamnosidase 0.63 mg/ml, no glucosidase"}}}
{"molecule": "B1", "values": [{"measurement": "% change in Left Peak", "setting": "[1]; [3]", "value": "−38", "unit": "%"}, {"measurement": "% change in Middle Peak", "setting": "[1]; [3]", "value": "−99", "unit": "%"}, {"measurement": "% change in Right Peak", "setting": "[1]; [3]", "value": 311, "unit": "%"}, {"measurement": "Cumulative Fold improvement in primary enzyme loading × time", "setting": "[1]; [3]", "value": 8}, {"measurement": "Fold improvement in primary enzyme loading × time", "setting": "[1]; [3]", "value": 2.0}, {"measurement": "% Right Peak", "setting": "[1]; [3]", "value": 81, "unit": "%"}, {"measurement": "% Left Peak", "setting": "[1]; [3]", "value": 19, "unit": "%"}, {"measurement": "% Middle Peak", "setting": "[1]; [3]", "value": 0, "unit": "%"}, {"measurement": "% change in Left Peak", "setting": "[1]; [4]", "value": "−45", "unit": "%"}, {"measurement": "% change in Middle Peak", "setting": "[1]; [4]", "value": 21, "unit": "%"}, {"measurement": "% change in Right Peak", "setting": "[1]; [4]", "value": 116, "unit": "%"}, {"measurement": "Cumulative Fold improvement in primary enzyme loading × time", "setting": "[1]; [4]", "value": 8}, {"measurement": "Fold improvement in primary enzyme loading × time", "setting": "[1]; [4]", "value": 2.0}, {"measurement": "% Right Peak", "setting": "[1]; [4]", "value": 30, "unit": "%"}, {"measurement": "% Left Peak", "setting": "[1]; [4]", "value": 16, "unit": "%"}, {"measurement": "% Middle Peak", "setting": "[1]; [4]", "value": 53, "unit": "%"}, {"measurement": "% conversion (Right peak/Left Peak) (−neg control)", "setting": "[2]; R3 round: 35 deg C, lysate 0.4% v/v", "value": 13.06, "unit": "%"}, {"measurement": "Cumulative FIOP from WT", "setting": "[2]; R3 round: 35 deg C, lysate 0.4% v/v, estimate", "value": 9.4}, {"measurement": "Right Peak %", "setting": "[2]; R3 round: 35 deg C, lysate 0.4% v/v, negative control 26.60", "value": 29.45, "unit": "%"}, {"measurement": "Left Peak %", "setting": "[2]; R3 round: 35 deg C, lysate 0.4% v/v, negative control 28.91", "value": 18.85, "unit": "%"}, {"measurement": "Middle Peak %", "setting": "[2]; R3 round: 35 deg C, lysate 0.4% v/v, negative control 44.49", "value": 51.70, "unit": "%"}, {"measurement": "% conversion (Right peak/Left Peak)", "setting": "[2]; R3 round: 35 deg C, lysate 0.4% v/v, negative control 47.91", "value": 60.97, "unit": "%"}, {"measurement": "FIOP (% area increase variant/pos control)", "setting": "[2]; R3 round: 35 deg C, lysate 0.4% v/v, positive control R2", "value": 3.3}, {"measurement": "% conversion (Right peak/Left Peak) (−neg control)", "setting": "[2]; R4 round: 35 deg C, lysate 0.125% v/v", "value": 2.16, "unit": "%"}, {"measurement": "Right Peak %", "setting": "[2]; R4 round: 35 deg C, lysate 0.125% v/v, negative control 26.09", "value": 26.56, "unit": "%"}, {"measurement": "Left Peak %", "setting": "[2]; R4 round: 35 deg C, lysate 0.125% v/v, negative control 29.62", "value": 27.65, "unit": "%"}, {"measurement": "Middle Peak %", "setting": "[2]; R4 round: 35 deg C, lysate 0.125% v/v, negative control 44.29", "value": 45.79, "unit": "%"}, {"measurement": "% conversion (Right peak/Left Peak)", "setting": "[2]; R4 round: 35 deg C, lysate 0.125% v/v, negative control 46.84", "value": 49.00, "unit": "%"}]}
